According to US20100330076A1:

Assays:
FcγRIa (human) = FcγRIa (human) (UniProt P12314); test: BIACore SPR
FcγRI (human) = FcγRI (human) (UniProt P12314); test: BIACore SPR
Chain of FcγRI (human) (P12314 16-292): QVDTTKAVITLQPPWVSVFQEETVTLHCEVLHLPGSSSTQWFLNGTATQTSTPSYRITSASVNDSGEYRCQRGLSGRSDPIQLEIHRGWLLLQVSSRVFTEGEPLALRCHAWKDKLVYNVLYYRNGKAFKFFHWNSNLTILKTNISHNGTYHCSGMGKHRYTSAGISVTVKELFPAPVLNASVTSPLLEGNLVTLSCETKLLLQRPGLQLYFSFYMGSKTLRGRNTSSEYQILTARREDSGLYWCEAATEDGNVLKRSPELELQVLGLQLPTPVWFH

Chain of FcγRIa (human) (P12314 16-292): as above

Substance	Kd (FcγRIa (human))	Kd (FcγRI (human))
Aglycosylated wild type trastuzumab	382 nM	
Aglycosylated wild type Trastuzumab		382 nM
